# Residue numbers refer to the chain shown, from its start.
# B1: anti-MSLN single domain antibody clone 394908 (VHH)
# VHH: EVQLLESGGGLIQPGGSLRLSCAASGFSFSSYAMSWVRQAPGKGLEWVSNISGSGDSTYYADSVKGRFTISRDNSKNTLYLQMNSLRAEDTAVYYCAKPPSYYDFLSDPDYWGQGTLVTVSS
# notes: Human VH single domain
# B2: anti-MSLN single domain antibody clone 392774 (VHH)
# VHH: B1 VHH with I12V, S28T, S35T, N50A, S52T, Y80F, N84S, A88G
# notes: Human VH single domain
# B3: anti-MSLN single domain antibody clone 394940 (VHH)
# VHH: B1 VHH with I12V, N50S, G53S, K98R
# notes: Human VH single domain ('heavy chain antibody variable domain')
# B4: anti-MSLN single domain antibody clone 394955 (VHH)
# VHH: B1 VHH with I12V, S28T, N50S, G53S
# notes: Human VH single domain; tested as antibody-containing supernatant
# B5: anti-MSLN single domain antibody clone 394912 (VHH)
# VHH: B1 VHH with N50S, G53S, S57G
# notes: as for B4
# B6: anti-MSLN single domain antibody clone 394921 (VHH)
# VHH: B1 VHH with I12V, S28T
# notes: as for B4
# B7: anti-MSLN single domain antibody clone 394930 (VHH)
# VHH: B1 VHH with N50S, G53S, K98R
# notes: as for B4
# B8: anti-MSLN single domain antibody clone 394907 (VHH)
# VHH: B1 VHH with S28T, N50S, G53S
# notes: as for B4
# B9: anti-MSLN single domain antibody clone 394991 (VHH)
# VHH: B1 VHH with I12V, S28T, S35N, N50S, G53S, D56G, K98R
# notes: as for B4
# B10: anti-MSLN single domain antibody clone 394901 (VHH)
# VHH: B1 VHH with N50S, G53S
# notes: as for B4
# B11: anti-MSLN single domain antibody clone 394985 (VHH)
# VHH: B1 VHH with I12V, S28T, N50A, S52T, Y80F, N84S, A88G
# notes: as for B4
# B12: anti-MSLN single domain antibody clone 394966 (VHH)
# VHH: B1 VHH with I12G, S28T, A33P, N50A
# notes: as for B4
# B13: anti-MSLN single domain antibody clone 394979 (VHH)
# VHH: EVQLLESGGGVVQPGRSLRLSCAASGFTFSSYDMHWVRQAPGKGLEWVAVISYDGSKKYSADSVKGRFTISRDNSKNTLYLQMNSLRAEDTAVYYCAKPPSYYDFLSDPDYWGQGTLVTVSS
# notes: as for B4
# B14: anti-MSLN single domain antibody clone 394910 (VHH)
# VHH: B1 VHH with I12V, N50S, G53S
# notes: as for B4
# B15: anti-MSLN single domain antibody clone 394971 (VHH)
# VHH: B1 VHH with N50Y
# notes: as for B4
# B16: anti-MSLN single domain antibody clone 394905 (VHH)
# VHH: B1 VHH with I12G, S28T, A33P, N50S, G53S
# notes: as for B4
# B17: anti-MSLN single domain antibody clone 394947 (VHH)
# VHH: B1 VHH with N50S, G53S, N84K
# notes: as for B4
# B18: anti-MSLN single domain antibody clone 394925 (VHH)
# VHH: B1 VHH with N50A, G53S
# notes: as for B4
# B19: anti-MSLN single domain antibody clone 394982 (VHH)
# VHH: B1 VHH with I12V, S28T, S30T, N50S, G53S
# notes: as for B4
# B20: anti-MSLN single domain antibody clone 394972 (VHH)
# VHH: B1 VHH with I12V, S28T, N50A, G53S
# notes: as for B4
# Biological target: T1, human mesothelin (MSLN) on cells (human, UniProt Q13421 296-598)
# T1 construct: whole, on cells; One molecule is used for human MSLN on transfected CHO cells and on HeLa cells; the cell line is named under assay; also called huMSLN
# T1 sequence (Q13421 other isoform, or with tags, fused parts or gaps limits assumed): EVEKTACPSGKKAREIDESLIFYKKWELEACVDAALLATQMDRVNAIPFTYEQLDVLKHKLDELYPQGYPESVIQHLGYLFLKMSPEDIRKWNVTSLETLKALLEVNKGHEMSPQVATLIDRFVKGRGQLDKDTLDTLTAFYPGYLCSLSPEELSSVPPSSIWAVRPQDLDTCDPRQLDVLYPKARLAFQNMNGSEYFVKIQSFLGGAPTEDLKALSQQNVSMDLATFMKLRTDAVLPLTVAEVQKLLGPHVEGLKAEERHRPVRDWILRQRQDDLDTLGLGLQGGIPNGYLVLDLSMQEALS
# Test: flow cytometry dose curve, CHO cells expressing human MSLN
# Protocol: (§1) Cell-binding dose curves for example anti-MSLN single domain antibodies described herein were generated using CHO cells expressing human MSLN (FIG. 1A), Hela cells (FIG. 1B), and CHO-OFFtgt cells (FIG. 1C). The single domain antibodies were tested at a starting concentration of 150 nM, followed by 3-fold serial dilutions for an 8-point dose curve. All washes and dilutions of cells, antibodies, and reagents were performed using flow buffer (1× phosphate buffered saline (PBS), 1% bovine serum albumin (BSA), and 0.1% NaN₃). Cells were pelleted and resuspended at 1×10⁶ cells/mL in flow buffer. Then, 50 μL cells were combined with 50 μL of test antibody and incubated 30 minutes at 4° C., followed by two wash steps with flow buffer. Cells were then resuspended in 50 μL PE-conjugated secondary diluted to 1.25 μg/mL (Southern Biotech #2042-09) and incubated for 20 minutes at 4° C. After two wash steps, cells were resuspended in flow buffer and analyzed using a BD Celesta system. PE mean fluorescence intensity was plotted as a fold over background (cells incubated with secondary detection antibody only).
# To determine cell binding EC50 values for example anti-MSLN single domain antibodies of the present disclosure, cell binding dose curves were generated using Hela cells and CHO cells expressing human MSLN. The single domain antibodies were tested at a starting dose of 150 nM, followed by 3-fold serial dilutions for an 8-point dose curve as described in Example 2. The transformed data were plotted as an xy-graph using the non-linear regression curve fit (available in GraphPad Prism 8.4.3) to obtain the EC50 values (nM), which are summarized in Table E2.
row,EC50 [nM],Binder
1,71.1,B1
2,7.2,B2
3,6.5,B3

# Biological target: T2, recombinant human MSLN (R&D Systems, #3265-MS) (human, UniProt Q13421 296-580, limits assumed)
# T2 construct: Bought reagent; It was loaded on Ni-NTA sensors for the binning, so it apparently carries a His tag; also called antigen
# T2 sequence (Q13421 other isoform, or with tags, fused parts or gaps limits assumed): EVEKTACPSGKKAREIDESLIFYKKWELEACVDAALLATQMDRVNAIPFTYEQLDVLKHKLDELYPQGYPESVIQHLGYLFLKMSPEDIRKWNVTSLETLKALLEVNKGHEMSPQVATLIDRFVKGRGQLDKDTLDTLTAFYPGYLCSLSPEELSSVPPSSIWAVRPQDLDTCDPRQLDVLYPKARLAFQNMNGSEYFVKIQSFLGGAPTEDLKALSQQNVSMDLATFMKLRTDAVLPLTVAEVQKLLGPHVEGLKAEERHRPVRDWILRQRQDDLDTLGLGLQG
# Test: BLI (Octet HTX), antibody on AHC sensors, antigen in solution, 1:1 model
# Protocol: Table E3 summarizes affinity and epitope bin information for example anti-MSLN single domain antibodies of the present disclosure. The affinity of each single domain antibody to recombinant human MSLN (R&D Systems, #3265-MS) was measured by Bio-layer interferometry (BLI) using an Octet HTX. AHC (Anti-hIgG Fc Capture) sensors were used to immobilize test antibody at 5 μg/mL. After baseline readings, sensors were dipped into antigen solutions (starting at 500 nM followed by a 7-point, 2-fold dilution series). Association and dissociation were measured for 180 and 240 seconds respectively. Data were analyzed with Octet Data Analysis v11.0 HT (ForteBio) using a standard 1:1 binding model. Epitope bins for the single domain antibodies were determined by an in-tandem competition BLI binding experiment using an Octet HTX. The antigen (5 μg/mL) was loaded on the sensor Ni-NTA sensor followed by a baseline in kinetic buffer. The antigen-coated sensor was then dipped into a saturating concentration Antibody 1. A second baseline was now set for 300 seconds. Then the antigen-antibody 1 complex was dipped into Antibody 2 solution for 180 seconds and then allowed to dissociate.
row,Kd [nM],Binder
1,64.6,B1
2,185,B2
3,21,B3

# Biological target: T1, human mesothelin (MSLN) on cells
# Test: flow cytometry, supernatant diluted 1:5, CHO cells expressing human MSLN
# Protocol: Pelleted CHO cells were resuspended in flow buffer (1× phosphate buffered saline (PBS), 1% bovine serum albumin (BSA), and 0.1% NaN₃) at 1.25×10⁶ cells/mL. Antibody containing supernatants were diluted 1:5 in flow buffer, and 40 μL cells plus 10 μL diluted antibody supernatant were incubated for 30 minutes at 4° C. Cells were washed with flow buffer and resuspended in 50 μL phycoerythrin (PE)-conjugated secondary antibody (Southern Biotech #2042-09) diluted in flow buffer to 1.25 μg/mL and incubated for 20 minutes at 4° C. After two wash steps, cells were resuspended in flow buffer and analyzed using a Guava easyCyte 8HT system. Table E1 summarizes the target binding activity of the anti-MSLN single domain antibodies as fold over background mean fluorescence intensity (MFI) signal.
row,fold over background mean fluorescence intensity (MFI) [fold over background],Binder
1,294,B4
2,508,B1
3,404,B5
4,381,B6
5,540,B7
6,429,B8
7,246,B2
8,281,B9
9,400,B10
10,378,B11
11,356,B12
12,160,B13
13,313,B14
14,373,B15
15,227,B16
16,662,B3
17,285,B17
18,277,B18
19,405,B19
20,477,B20

# Biological target: T1, human mesothelin (MSLN) on cells
# Test: flow cytometry dose curve, HeLa cells
# Protocol: as §1
# To determine cell binding EC50 values for example anti-MSLN single domain antibodies of the present disclosure, cell binding dose curves were generated using Hela cells and CHO cells expressing human MSLN. […]
row,EC50 [nM],Binder
1,15.6,B2
2,2.6,B3
